Here are results for one substance from patent publication US20070249813A1.

One may read the pKd as the negative decadic logarithm of the Kd, by convention in mol/L.

pKd: −log10 of the molar value.

In assay [1] the target is biotinylated recombinant human TNFα (human) (UniProt P01375). The assay is described as follows: SPR (BIAcore), [Ab] 200 nM over immobilized biotinylated rhTNFα. A general note: Surface plasmon resonance follows binding to a sensor surface in real time, without labels.
Assay [2] shares this target. The assay is described as follows: SPR (BIAcore), [Ab] 25 nM over immobilized biotinylated rhTNFα.
In assay [3] the target is recombinant human TNFα (human) (UniProt P01375). The assay is described as follows: cell-based or functional assay.
Sequence of recombinant human TNFα (human) (P01375 77-233 limits assumed): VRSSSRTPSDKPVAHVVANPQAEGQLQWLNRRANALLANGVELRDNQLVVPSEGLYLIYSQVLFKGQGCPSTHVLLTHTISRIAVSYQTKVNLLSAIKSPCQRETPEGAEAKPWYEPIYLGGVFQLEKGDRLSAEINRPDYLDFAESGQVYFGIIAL
In assay [4] the target is biotinylated recombinant human TNFα (human) (UniProt P01375). The assay is described as follows: SPR (BIAcore), [Ab] 400 nM over immobilized biotinylated rhTNFα.
The target is the same in assay [5]. Nature of the assay: SPR (BIAcore), [Ab] 3 nM over immobilized biotinylated rhTNFα.
For assay [6] the target is unchanged. Nature of the assay: SPR (BIAcore), [Ab] 100 nM over immobilized biotinylated rhTNFα.
Assay [7] has the same target. Nature of the assay: summary table of binding properties for hTNFα (assay not named there).
The target is the same in assay [8]. Nature of the assay: SPR (BIAcore), [Ab] 13 nM over immobilized biotinylated rhTNFα.
The target is the same in assay [9]. Nature of the assay: SPR (BIAcore), [Ab] 50 nM over immobilized biotinylated rhTNFα.
Assay [10] has the same target. The assay is described as follows: SPR (BIAcore), [Ab] 6 nM over immobilized biotinylated rhTNFα.

Sequence of biotinylated recombinant human TNFα (human) (P01375 77-233 limits assumed): as above

MAK 195 F(ab′)2 fragment (antibody): the Ab, bound, RUs in [1] was found to be 1080 RU; in assay [2], 957 RU; in assay [4] it was 881 RU; in assay [5], 231 RU; in assay [6], 1140 RU; in assay [8], 708 RU. Besides, the Ab, bound, RUs in assay [9] was determined as 1110 RU; in assay [10], 433 RU. Moreover, the IC50, neutralization of TNFα-induced L929 cytotoxicity in [3] worked out at 0.062 nM. Further, in assay [7], the pKd is 9.34. Also, the Stoichiometry in assay [7] was 1.4.
